From US7049398B1, “Melanocortin metallopeptide constructs, combinatorial libraries and applications” (Palatin Technologies, Inc., priority 1999, dated 2006)
Primed or numbered codes have the meaning given here. Where no end group is shown, it is not given here. [ ]: non-standard residue; d: D form. The star is where a group is joined. Phe(2,4-Cl2) = N[C@@H](Cc1ccc(Cl)cc1Cl)C(=O)O; Phe(2-Cl) = N[C@@H](Cc1ccccc1Cl)C(=O)O; 2Nal = N[C@@H](Cc1ccc2ccccc2c1)C(=O)O; hPhe = N[C@@H](CCc1ccccc1)C(=O)O; Phg = N[C@H](C(=O)O)c1ccccc1; 4Abz = Nc1ccc(C(=O)O)cc1; Ac6c = NC1(C(=O)O)CCCCC1; Heptanoyl = CCCCCCC(=O)*; Nle = CCCC[C@H](N)C(=O)O; 2Abz = Nc1ccccc1C(=O)O; Bz′ = not defined here; Ac3c = NC1(C(=O)O)CC1; Inp = O=C(O)C1CCNCC1; Bn = c1ccc(C*)cc1; βAla = NCCC(=O)O

What was measured:
hMC4-R = target: T1, hMC4-R (Homo sapiens, UniProt P32245); assay: Competitive inhibition binding assay, 125I-NDP-alpha-MSH, hMC4-R membranes; conditions: 0.4 nM 125I-NDP-alpha-MSH
T1 construct: expressed in transfected cells; host or cells: 293 cells
Description: (§1) Representative Peptides of this Invention. Representative peptides of this invention were made using library and synthesis methods described herein, and selected peptides were tested using a binding assay. […] The peptides were synthesized using conventional peptide synthesis methods, and were complexed with rhenium using the methods described herein.
(§2) The competitive inhibition binding assay was conducted using membranes prepared from hMC4-R and B-16 mouse melanoma cells (containing MC1-R) using 0.4 nM ^125I-NDP-alpha-MSH (New England Nuclear, Boston, Mass., USA) in 50 mM HEPES buffer containing 1 mM MgCl2, 2 mM CaCl2, and 5 mM KCl, at pH 7.2. The assay tube also contained a chosen concentration of the test peptide of this invention, complexed to a rhenium metal ion as indicated, for determining its efficacy in inhibiting the binding of ^125I-NDP-alpha-MSH to its receptor. Non-specific binding was measured by complete inhibition of binding of ^125I-NDP-alpha-MSH in the assay with the presence of 1 μM alpha-MSH. Incubation was for 90 minutes at room temperature, after which the assay mixture was filtered and the membranes washed three times with ice cold buffer. The filter was dried and counted in a gamma counter for remaining radioactivity bound to the membranes. 100% specific binding was defined as the difference in radioactivity (cpm) bound to cell membranes in the absence and presence of 1 μM alpha-MSH. The cpm obtained in presence of test compounds were normalized with respect to 100% specific binding to determine the percent inhibition of ^125I-NDP-alpha MSH binding. […]

[1] = target: T2, MC1-R (B-16 mouse melanoma cells) (Mus musculus, UniProt Q01727); assay: Competitive inhibition binding assay, 125I-NDP-alpha-MSH, B-16 mouse melanoma cell membranes; conditions: 0.4 nM 125I-NDP-alpha-MSH
T2 construct: B-16 mouse melanoma cells (containing MC1-R); endogenous in cells; host or cells: B-16 mouse melanoma cells
Description: as §1, §2

[2] = Conc. cut off 1 μM, hMC4-R membranes
[3] = Conc. cut off 1 μM, B-16 mouse melanoma cell membranes
[4] = Conc. cut off 1 μM test peptide
[5] = Conc. cut off 10 μM, hMC4-R membranes
[6] = Conc. cut off 10 μM, B-16 mouse melanoma cell membranes
[7] = Conc. cut off 10 μM test peptide

T2 sequence (Q01727 whole entry): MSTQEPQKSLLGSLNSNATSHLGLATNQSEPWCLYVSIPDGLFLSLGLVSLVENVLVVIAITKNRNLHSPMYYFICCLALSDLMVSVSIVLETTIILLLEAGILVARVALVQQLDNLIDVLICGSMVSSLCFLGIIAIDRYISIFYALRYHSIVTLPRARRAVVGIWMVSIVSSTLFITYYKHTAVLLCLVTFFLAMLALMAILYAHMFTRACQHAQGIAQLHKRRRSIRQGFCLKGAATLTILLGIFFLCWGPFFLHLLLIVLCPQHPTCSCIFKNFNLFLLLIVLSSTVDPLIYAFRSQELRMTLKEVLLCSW
T1 sequence (P32245 whole entry): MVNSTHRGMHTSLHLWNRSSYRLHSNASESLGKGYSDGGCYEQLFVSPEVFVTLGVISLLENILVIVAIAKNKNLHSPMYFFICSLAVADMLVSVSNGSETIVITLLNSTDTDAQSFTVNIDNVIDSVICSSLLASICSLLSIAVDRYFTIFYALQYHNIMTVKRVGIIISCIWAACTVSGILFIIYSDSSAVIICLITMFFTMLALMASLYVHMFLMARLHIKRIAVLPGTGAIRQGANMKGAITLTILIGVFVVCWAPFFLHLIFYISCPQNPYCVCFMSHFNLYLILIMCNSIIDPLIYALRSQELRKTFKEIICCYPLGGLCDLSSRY

| % Inhibition MC4-R (hMC4-R; [2]) [%] | % Inhibition MC1-R (B-16) [1, 3] [%] | % Inhibition MC4-R (hMC4-R; [4]) [%] | % Inhibition MC1-R (B-16) [1, 4] [%] | further results | Substance |
| --- | --- | --- | --- | --- | --- |
| 0 | −5 |  |  |  | PL-811 (Ac-H[Phg]CW-NH2; also: ReO[V] complex) |
| 0 | −4 |  |  |  | PL-814 (Ac-HFCW-NH2; also: ReO[V] metal complex) |
|  |  | 30 | 28 |  | PL-1514 (Ac-RFFNFC-NH2; also: ReO[V] metal complex) |
| 2 | 2 |  |  |  | PL-1093 ([βAla]G[Phe(2,4-Cl2)]CW-NH2; also: ReO complex) |
|  |  |  |  | % Inhibition MC4-R (hMC4-R; [5]): 8%; % Inhibition MC1-R (B-16) [1, 6]: 3% | PL-1095 ([βAla]G[Lys(Z)]CW-NH2; also: ReO complex) |
| 10 | 9 |  |  |  | PL-1309 (Heptanoyl-CRCW-NH2; cysteine pairing not given here; also: ReO[V] metal complex) |
| 27 | 20 |  |  |  | PL-1405 (Heptanoyl-FHCW-NH2; also: ReO[V] metal complex) |
|  |  | 21 | 28 |  | PL-1478 (Ac-RFFCS-NH2; also: ReO[V] metal complex) |
| −1 | −2 |  |  |  | PL-810 (Ac-H[2Nal]CW-NH2; also: ReO[V] complex) |
|  |  |  |  | % Inhibition MC4-R (hMC4-R; [5]): 10%; % Inhibition MC1-R (B-16) [1, 6]: 2% | PL-1114 ([βAla]HFCW-NH2; also: ReO[V] metal complex) |
|  |  | 6 | 19 |  | PL-1863 (Ac-FFC[2Abz]K-NH2; also: ReO[V] complex) |
|  |  |  |  | % Inhibition MC4-R (hMC4-R; [5]): 19%; % Inhibition MC1-R (B-16) [1, 6]: 57% | PL-1094 ([βAla]G[Phe(2-Cl)]CW-NH2; also: ReO complex) |
|  |  | 31 | 21 |  | PL-1510 (Ac-RFFCNAF-NH2; also: ReO[V] metal complex) |
|  |  | 30 | 19 |  | PL-1509 (Ac-RFCFNAF-NH2; also: ReO[V] metal complex) |
|  |  |  |  | % Inhibition MC4-R (hMC4-R; [5]): 12%; % Inhibition MC1-R (B-16) [1, 6]: 6% | PL-1096 ([βAla]GLCW-NH2; also: ReO complex) |
| 13 | −1 |  |  |  | PL-1091 ([βAla]GC(Bn)CW-NH2; also: ReO complex) |
|  |  | −14 | 0 |  | PL-1861 (Ac-FFC[4Abz]K-NH2; also: ReO[V] complex) |
|  |  | 0 | 6 |  | PL-1860 (Ac-FFC[Inp]K-NH2; also: ReO[V] complex) |
|  |  | 34 | 36 |  | PL-1621 (Ac-[Nle]AH[Ac6c]RCW-NH2; also: ReO[V] complex) |
| 0 | 27 |  |  | % Inhibition MC4-R (hMC4-R; [5]): 59%; % Inhibition MC1-R (B-16) [1, 6]: 84% | PL-1394 (Ac-HRWCF-NH2; also: ReO[V] metal complex) |
|  |  |  |  | % Inhibition MC4-R (hMC4-R; [5]): 62%; % Inhibition MC1-R (B-16) [1, 6]: 57% | PL-1360 (Ac-RWFCH-NH2; also: ReO[V] metal complex) |
|  |  |  |  | % Inhibition MC4-R (hMC4-R; [7]): 51%; % Inhibition MC1-R (B-16) [1, 7]: 45% | PL-1655 (Ac-HFRCW-NH2; also: ReO[V] metal complex) |
|  |  | 38 | 20 |  | PL-1636 (Ac-[Nle]AH[Ac3c]RCW-NH2; also: ReO[V] complex) |
|  |  |  |  | % Inhibition MC4-R (hMC4-R; [7]): 62%; % Inhibition MC1-R (B-16) [1, 7]: 19% | PL-1649 (Ac-HGGCW-NH2; also: ReO[V] metal complex) |
|  |  | 24 | 20 |  | PL-1512 (Ac-RFFNACF-NH2; also: ReO[V] metal complex) |
| 42 | 32 |  |  |  | PL-1406 (Heptanoyl-RFHCW-NH2; also: ReO[V] metal complex) |
|  |  |  |  | % Inhibition MC4-R (hMC4-R; [5]): 9%; % Inhibition MC1-R (B-16) [1, 6]: 12% | PL-839 (Ac-HFWC-NH2; also: ReO[V] metal complex) |
|  |  | 7 | 25 |  | PL-1926 ({Bz′}-Arg-Trp-Cys-NH2; also: ReO[V] complex) |
| 0 | −4 |  |  |  | PL-809 (Ac-H[hPhe]CW-NH2; also: ReO[V] complex) |
